The text below walks through data of patent publication US20180051033, “INHIBITORS OF LATE SV40 FACTOR (LSF) AS CANCER CHEMOTHERAPEUTICS” (TRUSTEES OF BOSTON UNIVERSITY, published 2018).

The target in the series is T1, LSF (TFCP2) (Homo sapiens, UniProt Q12800 SEQ:1-502).
T1 sequence: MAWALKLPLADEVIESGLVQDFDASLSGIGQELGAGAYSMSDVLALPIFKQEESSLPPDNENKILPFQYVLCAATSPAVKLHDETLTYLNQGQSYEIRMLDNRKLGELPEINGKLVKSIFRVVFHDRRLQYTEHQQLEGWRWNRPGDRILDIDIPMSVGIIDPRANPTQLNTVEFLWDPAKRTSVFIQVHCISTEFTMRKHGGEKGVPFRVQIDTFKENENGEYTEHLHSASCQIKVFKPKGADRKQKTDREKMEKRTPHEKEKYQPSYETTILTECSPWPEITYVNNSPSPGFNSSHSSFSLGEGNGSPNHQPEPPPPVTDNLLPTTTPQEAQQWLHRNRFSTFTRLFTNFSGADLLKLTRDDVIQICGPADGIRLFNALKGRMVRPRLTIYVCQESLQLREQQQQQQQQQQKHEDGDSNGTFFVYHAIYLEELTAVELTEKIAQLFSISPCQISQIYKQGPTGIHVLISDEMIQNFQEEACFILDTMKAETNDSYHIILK
Put plainly: EMSA; 40 mM KCl, 15 mM HEPES pH 7.9, 1 mM EDTA, 0.5 mM DTT, 5% glycerol, poly d(I-C), 30 C; FQI1 enhances binding at low and inhibits at higher concentration. The note with it: chain copies: 4 stated (tetrameric on DNA); label: 32P (radiolabelled). How it is done: LSF was translated in vitro as previously described¹⁶ for use in EMSAs. Protein was preincubated with inhibitor or DMSO and then incubated with 0.5 μg poly d(I-C) for 15 min at 4° C. in 40 mM KCl, 15 mM HEPES pH 7.9, 1 mM EDTA, 0.5 mM DTT, 5% glycerol. Finally, radiolabelled double-stranded DNA ([…]—SEQ ID NO: 5- and its complement) were added for a 30-min incubation at 30° C. Results were visualized using a PhosphorImager and quantified using ImageQuant software.
In general terms: Mobility shift assays separate free from complexed probe on a gel.

B1: LSF EMSA site (dsDNA)
DNA 1: TGGCTGGTTATGGCTGGTCAGACTAG
DNA 2: CTAGTCTGACCAGCCATAACCAGCCA
B1: the binding result is “binds”.
